Measured values taken from paper PMC4072508, “Genome-Wide Prediction and Validation of Peptides That Bind Human Prosurvival Bcl-2 Proteins” (PLoS Computational Biology, 2014).

T1: Bfl-1, Q16548
T1 chain: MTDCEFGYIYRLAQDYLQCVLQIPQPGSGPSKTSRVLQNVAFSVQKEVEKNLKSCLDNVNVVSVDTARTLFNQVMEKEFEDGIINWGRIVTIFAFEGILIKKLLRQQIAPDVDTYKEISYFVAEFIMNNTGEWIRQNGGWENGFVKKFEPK

T2: Mcl-1, Q07820
T2 chain: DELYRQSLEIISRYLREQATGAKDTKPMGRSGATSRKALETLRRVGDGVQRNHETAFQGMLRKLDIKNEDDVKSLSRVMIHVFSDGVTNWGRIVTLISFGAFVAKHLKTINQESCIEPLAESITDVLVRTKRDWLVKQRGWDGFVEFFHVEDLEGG


Assays:
Assay in all cases: peptide SPOT array, c-Myc-tagged receptor at 1 uM or 100 nM, anti-c-Myc-Cy3
[1] = molecular target: Bcl-xL, Q07817
Sequence of Bcl-xL, Q07817 (Q07817 1-209): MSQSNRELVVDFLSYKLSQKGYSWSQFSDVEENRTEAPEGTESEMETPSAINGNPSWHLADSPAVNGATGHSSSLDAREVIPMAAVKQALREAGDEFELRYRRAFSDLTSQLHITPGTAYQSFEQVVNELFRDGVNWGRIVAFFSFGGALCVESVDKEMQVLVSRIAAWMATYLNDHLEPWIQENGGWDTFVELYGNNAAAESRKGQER

[2] = molecular target: T1, Bfl-1, Q16548
[3] = molecular target: T2, Mcl-1, Q07820

SPOT signal as a fraction of Bim BH3's signal on the same receptor and array [1] | SPOT signal as a fraction of Bim BH3's signal on the same receptor and array [2] | SPOT signal as a fraction of Bim BH3's signal on the same receptor and array [3] | Binder
0.41 | 0.19 | 0.19 | ERLKGQLCDVLLIVLDQKFRAHKNVL [ZNF295]
0.06 | 0.08 | 0.05 | LFWTPLLVVLLAGLLDTEAQQTTLHP [SGCA]
2.64 | 1.71 | 1.37 | TAAAAYRGAHLRGRGRTVYNTFRAAA
0.07 | 0.04 | 0.05 | THFLDEEVKLIKKMLDHLTNLHRLGG [FTL]
0.06 | 0.04 | 0.04 | VLLTLLVAAVLRCQGQDVQEAGSCVQ [COL2A1]
0.06 | 0.04 | 0.05 | MSILTIASAVLEFVGDGIYNNTMGHV [TAP1]
0.06 | 0.04 | 0.03 | SQEPLEKAQLDALVGDQLIQSHHYAA [MCF2L2]
0.83 | 0.43 | 0.44 | KLALEQRCREDRARGRRLEETLPRRI [KIF19]
0.05 | 0.03 | 0.04 | HHSSQEMSSEDREYADSFGKCPGGRN [PCYT2]
0.06 | 0.07 | 0.04 | LTETSLISGNLHRILDITSCSVLWLN [FBXW5]
0.1 | 0.04 | 0.06 | SEIMHSFAKCIEVMLDGCLNNEHFEE [IPO5]
0.48 | 0.44 | 0.84 | LMARPAVALHFQSILDGFKEAVRYVL [SOS2]
0.35 | 0.23 | 0.25 | YIVLGLRKTTLQKVLKEVAELVGRVG [NLRX1]
0.06 | 0.04 | 0.05 | QCPIFRLGDIFRETLDNFSDVAIQGG [P2RX7]
0.2 | 0.13 | 0.16 | AIILCNVCGNDCTDCDRFLHLHRRTK [MYCBP2]
0.06 | 0.04 | 0.05 | MSLFLRVVFSDTMFGDLFEEEYSTVS

SPOT signal as a fraction of Bim BH3's signal on the same receptor and array [1] | SPOT signal as a fraction of Bim BH3's signal on the same receptor and array [2] | SPOT signal as a fraction of Bim BH3's signal on the same receptor and array [3] | Binder
0.1 | 0.06 | 0.08 | AFGLGDLPNLLGLVGDQLGDTERKRR [ADAMTS14]
1.16 | 0.52 | 0.75 | RVCPYYLSRNLKQQLDIIFMPYNYLL [RTEL1]
0.09 | 0.04 | 0.05 | SKEVAILCSFLLGLGDSCFNTQLLSI [MFSD11]
0.07 | 0.04 | 0.07 | MSLFLRVVFSFTMFGDLFEEEYSTVS
0.1 | 0.07 | 0.12 | LALMMQLARELKTLARDLGMAVVVTN [RAD51L3]
0.09 | 0.05 | 0.07 | AGYELLIQKFLSLYLDQIDMHRKFVV [ISOC1]
0.16 | 0.11 | 0.08 | TETKATFGVHLKIVGDWTERFRDLLL [NOX4]
0.1 | 0.08 | 0.11 | QRKHEGFERDLAALLDKVNSLGETAE [SPTAN1]
0.86 | 0.49 | 0.53 | AEVMRQRGINDRYLGKVLELVLRSPA [KIAA0664]
2.76 | 1.47 | 1.35 | GTAVAYRGAHDRGRGRAVYNTFRAAP
0.07 | 0.05 | 0.06 | SHFVACMTAILNQMGDQHYSFYIETF [DOCK2]
0.05 | 0.06 | 0.03 | NNNMDVESRTDATMGDTLASRGLLDA [SEC16A]
0.49 | 0.56 | 0.51 | PYLSKHRADRDRRLGDFLNQESFDLA [SMPD2]
0.06 | 0.04 | 0.04 | QEQEQHVPFDIHTYLDQLVSRFPQLN [NCAPH2]
0.91 | 0.86 | 0.72 | CGEWTRRSLHDRVLGRQLILPTDKGV [FAM149A]
0.75 | 0.54 | 0.54 | LALLAQPSHLMRQVLRSVFGHICSHL [MYBBP1A]
